For experiment [1], the system named is prostate cancer patients' sera. The experiment is described as follows: Modified SEREX immunoscreening of T21 clone against prostate cancer patients' sera. Further details: key to Sera reactivity: +: sera reactivity observed; −: no sera reactivity observed. It counts as binding, human. The source says:
(§1) The SEREX approach allows an unbiased search for an antibody response and the direct molecular definition of immunogenic tumour proteins based on their reactivity with allogeneic patient sera. In this approach, a prokaryotically expressed cDNA library constructed from normal human testes was immunoscreened with absorbed and diluted patients' sera for the detection of tumour antigens that have elicited a high-titer immunoglobulin (Ig) G humoral response. Such a humoral response implies T-cell recognition of the detected antigens by helper T cells. […] The SEREX approach can then be modified and used to determine the reactivity of identified antigens with panels of human sera including prostate cancer patient sera and normal donor sera.
(§2) The reactivity of promising positive clones against patient and normal donor serum was determined by immunoscreening the clones against and allogeneic panel of 10 prostate cancer patients' sera and 10 healthy donor patients' sera. The methodology used was the same as the SEREX methodology (described above) with the following modifications: The positive clone (T21) and a negative clone (blue phage) were plated out on a small LB agar plate at a ratio of 1:2 to give a titre of approximately 600 pfu/plate. The steps for detection of false positives, subcloning and retesting were not necessary. Following expression overnight, plaque expression and transferral of the plaques to nitrocellulose membranes, the nitrocellulose membranes were incubated with the individual serum and colour developed as described previously. The results would then be recorded simply as being positive (plaques visible) or negative (no plaques visible).
(§3) Immune recognition of identified gene products in prostate cancer patients. To assess the frequency of antibody responses against T21 in sera from normal individuals and prostate cancer patients, 10 prostate cancer patient sera and 10 normal adult sera were screened using a modified immunoscreening procedure.

Experiment [2] deals with normal individual sera. The experiment is described as follows: Modified SEREX immunoscreening of T21 clone against normal individual sera. It counts as binding, human. Details: key to Sera reactivity: +: sera reactivity observed; −: no sera reactivity observed.
Description: as §1, §2, §3

B1: T21: SEREX-identified cancer-testis antigen clone; cDNA encodes a putative 535 amino acid protein (SEQ. ID. 3) (protein, listed as Homo sapiens)
chain: MSEAQSKNEIIAQEFLIKEAECRNADIELEHHRSQAEQNEFLSRELIEKERDLERSRTVIAKFQNKLKELVEENKQLEEGMKEILQAIKEMQKDPDVKGGETSLIIPSLERLVNAIESKNAEGIFDASLHLKAQVDQLTGRNEELRQELRESRKEAINYSQQLAKANLKIDHLEKETSLLRQSEGSNVVFKGIDLPDGIAPSSASIINSQNEYLIHLLQELENKEKKLKNLEDSLEDYNRKFAVIRHQQSLLYKEYLSEKETWKTESKTIKEEKRKLEDQVQQDAIKVKEYNNLLNALQMDSDEMKKILAENSRKITVLQVNEKSLIRQYTTLVELERQLRKENEKQKNELLSMEAEVCEKIGCLQRFKEMAIFKIAALQKVVDNSVSLSELELANKQYNELTAKYRDILQKDNMLVQRTSNLEHLECENISLKEQVESINKELEITKEKLHTIEQAWEQETKLGNESSMDKAKKSITNSDIVSISKKITMLEMKELNERQRAEHCQKMYEHLRTSLKQMEERNFELETKFAEV
For B1, the figures for the “Antibody response against T21 in sera (in words)” value in experiment [1] (10 prostate cancer patient sera) and in experiment [2] (10 normal adult sera) were “reacted exclusively with allogeneic sera obtained from prostate cancer patients” and “not with sera from healthy individuals”, respectively. Further, the “Sera reactivity, reactive sera / sera tested” value in experiment [1] (panel of 10 prostate cancer patients sera) is listed as 4/10; in experiment [2] (panel of 10 normal donor sera), 0/10. Further, the Sera reactivity entry was “+” in experiment [1] (prostate cancer patient serum 27); “−” in experiment [1] (prostate cancer patient serum 29); “−” in experiment [1] (prostate cancer patient serum 32); “−” in experiment [1] (prostate cancer patient serum 33); “+” in experiment [1] (prostate cancer patient serum 34); “−” in experiment [1] (prostate cancer patient serum 36). Further, the Sera reactivity entry was “−” in experiment [1] (prostate cancer patient serum 37); “+” in experiment [1] (prostate cancer patient serum 38); “+” in experiment [1] (prostate cancer patient serum 39); “−” in experiment [1] (prostate cancer patient serum 48); “−” in experiment [2] (normal individual serum 1); “−” in experiment [2] (normal individual serum 2). For the same molecule, the Sera reactivity result in experiment [2] (normal individual serum 3), in experiment [2] (normal individual serum 5), in experiment [2] (normal individual serum 12), in experiment [2] (normal individual serum 13), in experiment [2] (normal individual serum 14) and in experiment [2] (normal individual serum 19) was “−” each time. Besides, the Sera reactivity result in experiment [2] (normal individual serum 20) and in experiment [2] (normal individual serum 21) was “−” in each case.
